Our source for the IC50 values is publication PMC10338342 (2023).

The target in assay [1] is T1, nucleosome core particle: human histone octamer (H2A, H2B, H3.1, H4) wrapped by DNA (human, UniProt P04908 1-130; P06899 1-126; P68431 1-136; P62805 1-103). Nature of the assay: FRET; NCP SHL-6.2; competition with His-MYC-MAX (800 nM).
In assay [2] the target is T1, nucleosome core particle: human histone …. The assay is described as follows: FRET; NCP SHL+5.8; competition with His-MYC-MAX (625 nM).

Usually IC50 stands for the midpoint of a concentration-inhibition curve. A higher IC50 goes with a need for much substance.

B1: CLOCK-BMAL1 bHLH PAS-AB heterodimer with BMAL1 R173A (complex)
chain 1: VEEDDKDKAKRVSRNKSEKKRRDQFNVLIKELGSMLPGNARKMDKSTVLQKSIDFLRKHKETTAQSDASEIRQDWKPTFLSNEEFTQLMLEALDGFFLAIMTDGSIIYVSESVTSLLEHLPSDLVDQSIFNFIPEGEHSEVYKILSTHLLESDSLTPEYLKSKNQLEFCCHMLRGTIDPKEPSTYEYVRFIGNFKSLTSVSTSTHNGFEGTIQRTHRPSYEDRVCFVATVRLATPQFIKEMCTVEEPNEEFTSRHSLEWKFLFLDHRAPPIIGYLPFEVLGTSGYDYYHVDDLENLAKCHEHLMQYGKGKSCYYRFLTKGQQWIWLQTHYYITYHQWNSRPEFIVCTHTVVSYAEVRAERRRELGIEESL
chain 2: not shown
In assay [1], B1 gave a 50% inhibitory concentration (IC50) of more than 3 µM.

B2: CLOCK-BMAL1 bHLH PAS-AB heterodimer (complex)
chain 1: B1 chain 1
chain 2: not shown
For the molecule B2, the values for the IC50 in assay [2] and in assay [1] were 2.31 µM and 1.19 µM, respectively.

B3: CLOCK-BMAL1 bHLH PAS-AB heterodimer with BMAL1 Q385A (complex)
chain 1: B1 chain 1
chain 2: not shown
In assay [1], B3 yielded an IC50 of more than 3 µM.
